Biological target: human LTβR on A375 cells (human) (UniProt P36941)
Assay: cell-based or functional assay

Sequence of human LTβR on A375 cells (human) (P36941 31-435): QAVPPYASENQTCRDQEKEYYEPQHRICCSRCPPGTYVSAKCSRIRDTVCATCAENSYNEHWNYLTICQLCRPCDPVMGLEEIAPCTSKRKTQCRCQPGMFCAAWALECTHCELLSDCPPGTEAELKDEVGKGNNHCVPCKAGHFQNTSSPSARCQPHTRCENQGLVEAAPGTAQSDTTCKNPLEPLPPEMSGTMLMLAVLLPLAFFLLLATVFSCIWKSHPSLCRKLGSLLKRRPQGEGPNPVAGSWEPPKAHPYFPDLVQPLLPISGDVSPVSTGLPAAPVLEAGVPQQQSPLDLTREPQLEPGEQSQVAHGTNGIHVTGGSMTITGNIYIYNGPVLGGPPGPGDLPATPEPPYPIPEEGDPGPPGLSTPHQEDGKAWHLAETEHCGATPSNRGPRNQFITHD

recombinant human LIGHT (R&D systems) (from UniProt O43557 74-240) (ligand)
IL-8 secretion of A375 cells, EC50 (FIG. 15a): 0.226 nM
IL-8 secretion of A375 cells, EC50 (FIG. 15b): 0.19 nM

— US20250368754A1
